This note sets out measurements from PMC12464271.

As usually defined, the stoichiometry N is the number of molecules, sites or subunits per partner or assembly.

For the assay, the target named is HPV-16 L1 capsid protein lacking the first twenty-nine N-terminal amino acids after the start codon (Human papillomavirus type 16) (UniProt P03101). In words: SEC + other: negative-stain TEM; purified L1 in phosphate buffer pH 7.5 with the reducing agent DTT (20 mM); aggregates disassembled into soluble pentamers.

Take “HPV-16 L1 capsid protein lacking the first twenty-nine N-terminal amino acids after the start codon (from UniProt P03101 1-505) (natural protein)”: the stoichiometry N was 5.
